The values below come from publication PMC9701223, “GOLPH3 protein controls organ growth by interacting with TOR signaling proteins in Drosophila” (Cell Death & Disease, 2022).

B1: GST-Tctp (Drosophila Translationally controlled tumor protein) (natural protein, Drosophila melanogaster, UniProt Q9VGS2 1-172, looked up)
chain: MKIYKDIITGDEMFADTYKMKLVDDVIYEVYGKLITRQGDDIKLEGANASAEEADEGTDITSESGVDVVLNHRLTECFAFGDKKSYTLYLKDYMKKVLAKLEEKSPDQVDIFKTNMNKAMKDILGRFKELQFFTGESMDCDGMVALVEYREINGDSVPVLMFFKHGLEEEKC
notes: Translationally controlled tumor protein (Tctp), Drosophila melanogaster; full-length cDNA cloned into pGEX-6p-2; Held on glutathione beads as bait; source: E. coli BL21-Codon Plus, purified on glutathione-Sepharose 4B beads
B2: 6XHis-dGOLPH3 (natural protein, Drosophila melanogaster, UniProt Q9VQ93 1-294, looked up)
chain: MNRSDGLVRRSVKPRENGGAEGGLNANTPDDNQDALDNLKDQEDNIDDGDSKETRLTLMEEVLLLGLKDKEGYTSFWNDCISSGLRGCILIELGLRGRVMIEKSGMRRRGLCTRKLILKSDQQTGDVLLDEALKHIKETDPPETVQSWIEYLSGETWNPLKLRYQLKNVRERLAKNLVEKGVLTTEKQNFLLFDMTTHPLSDNVVKCRLVKKIQDSVLSKWVNDPQRMDKRMLALIFLAHASDVIENAFAPLNDDDYEVAMKRVRELLDLDFEAESAKPNANEILWAVFMAFTK
notes: Golgi phosphoprotein 3 (dGOLPH3), Drosophila melanogaster; source: bacterially expressed

The assay “6XHis-dGOLPH3” concerns the target B2. The experiment in a line: pull-down; direct interaction assay: bacterially expressed 6XHis-dGOLPH3 incubated with GST or GST-tagged proteins on glutathione-Sepharose 4B beads, 1 h, 4 °C; wash 25 mM Tris-HCl pH 7.4, 150 mM NaCl, 1% NP-40, 1 mM EDTA; western blot. Particulars: both partners purified. Background: In western blotting, separated proteins are transferred to a membrane and probed.

In the next assay the target is T1, GST-Lst8 (Drosophila melanogaster, UniProt Q9W328 1-313).
T1 construct: Lst8 (lethal with SEC13 protein 8), Drosophila melanogaster; full-length cDNA cloned into pGEX-6p-2; Held on glutathione beads as bait; source: E. coli ArcticExpress (DE3), purified on glutathione-Sepharose 4B beads
T1 sequence (looked up): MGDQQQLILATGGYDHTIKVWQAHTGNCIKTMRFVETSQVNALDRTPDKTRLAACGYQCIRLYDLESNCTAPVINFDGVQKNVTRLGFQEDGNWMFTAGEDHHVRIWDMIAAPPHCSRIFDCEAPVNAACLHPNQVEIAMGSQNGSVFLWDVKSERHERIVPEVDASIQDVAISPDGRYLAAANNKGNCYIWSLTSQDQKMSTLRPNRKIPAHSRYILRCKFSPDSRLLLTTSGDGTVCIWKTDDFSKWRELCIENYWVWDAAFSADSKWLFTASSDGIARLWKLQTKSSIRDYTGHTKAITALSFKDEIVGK
The assay is described as above. The settings on record: both partners purified.

In the case of B1, in the assay with 6XHis-dGOLPH3, the binding result was “binds”.

For B2, the binding result with GST-Lst8 is on record as “binds”.
